Experimental data: paper PMC11633826, “Site-specific π-clamp-mediated radiosynthesis of ^68Ga and ^18F PET radiopharmaceuticals” (Chemical Communications (Cambridge, England), 2024)
Bridge positions count the residues as written; N and C are the ends. Square brackets hold non-standard residues; d marks the D form. Peptide text beside a SMILES is read from it. * marks the point of attachment. X1 = O=C(O)CN1CCN(CC(=O)O)CCN(C(CCC(=O)NCCNC(=O)CCOCCOCCOCCOCCOCCC(=O)NCCSc2c(F)c(F)c(-c3c(F)c(F)c(*)c(F)c3F)c(F)c2F)C(=O)O)CC1

Assays:
[1] = format: in vitro ADME, human
Method: (§1) Stability of [18F]AlF-4: [18F]AlF-4 (3-5 MBq) was incubated at 37 °C in RPMI media (500 µL). Aliquots of the
(§2) solutions were sampled at 1, 2, 3, 4 and 5 h and diluted in H 2O for C18 RP-HPLC analysis. The diluted solutions
(§3) were centrifuged at 13,000 g for 5 min prior to analysis.
(§4) Stability of [68Ga]Ga-5: A sample of [68Ga]Ga-5 was added to serum (with or without 5 mM reduced glutathione),
(§5) in a ratio of one part radiolabelled solution to four parts of serum by volume and incubated at 37 °C. Aliquots
(§6) were taken for SE-HPLC analysis at t = 1 h, 2 h, 3 h, 4 h and 5 h.
(§7) Cell culture: The rat cancer cell line AR42J (cultured in RPMI -1640) was purchased from American Type Culture
(§8) Collection. Growth media were supplemented with 10 % foetal bovine serum (FBS), 100 units/mL penicillin , 100
(§9) µg/mL streptomycin, and 2 mM ʟ-glutamine. Cell lines were harvested twice weekly using a formulation of 0.25
(§10) % trypsin/0.53 mM EDTA in Phosphate Buffered Salt (PBS) Solution without calcium and magnesium, which was
then neutralised with the appropriate medium containing FBS. Cells were maintaine d in a humidified chamber
containing 5 % CO2 at 37 °C.
SSTR2 in vitro binding studies: [68Ga]Ga-5 was prepared as per above. The radioconjugate was then diluted with […]
(§11) by PBS wash (500 μL x 1). The radioactivity associated with each fraction were then counted using a gamma […]

[2] = in vivo; details: BALB/c, mouse, iv, total radioactivity, Ex vivo biodistribution
Method: page 9: mice under 0.8-1.5% isoflurane in oxygen anaesthesia and warmed to 37 °C for the duration of the experiment. Mice were administered [68Ga]Ga-5 (∼2-3 μg, ∼0.8-1.5 MBq) in 200 μL of PBS via intravenous tail injection. Dynamic PET scans were acquired for up to 1 h post injection, followed by a CT scan for anatomical visualisation (480 projections; helical acquisition; 55 kVp; 600 ms exposure time). PET/CT datasets were reconstructed using a Monte Carlo-based full-3D iterative algorithm (TeraTomo, Mediso) with 4 iterations, 6 subsets, and 0.4 mm isotropic voxel size. Images were co-registered and analysed using VivoQuant v.3.0 (Invicro). Regions of interest (ROIs) were delineated for PET activity quantification in specific organs. Uptake in each ROI was expressed as a percentage of injected dose per gram of tissue (% ID/g). Biodistribution studies: Following PET/CT imaging study, mice (n=4/group, one mouse from each group was not subjected to PET/CT imaging) were culled by cervical dislocation, organs were dissected, weighed, and gamma- counted along with standards prepared from the corresponding sample of injected radiolabelled conjugates. Conjugate uptake was calculated as a percentage of injected dose per gram (% ID/g) of tissue.

[3] = in vivo; details: mouse
Method: as §1, §2, §3, §4, §5, §6, §7, §8, §9, §10
then neutralised with the appropriate medium containing FBS. […]
as §11
isotropic voxel size. Images were co-registered and analysed using VivoQuant v.3.0 (Invicro). […]
(ROIs) were delineated for PET activity quantification in specific organs. Uptake in each ROI was expressed as a […]

[4] = physchem; details: pH 7.4

C[C@@H](O)[C@H](NC(=O)[C@@H]1CSSC[C@H](NC(=O)[C@@H](Cc2ccccc2)NC(=O)[C@H](Cc2ccccc2)NC(=O)[C@@H]2CCCN2C(=O)[C@H](CSc2c(F)c(F)c(-c3c(F)c(F)c(SCCNC(=O)CCOCCOCCOCCOCCOCCC(=O)NCCNC(=O)CCC(C(=O)O)N4CCN(CC(=O)O)CCN(CC(=O)O)CC4)c(F)c3F)c(F)c2F)NC(=O)[C@@H](N)Cc2ccccc2)C(=O)N[C@@H](Cc2ccc(O)cc2)C(=O)N[C@H](Cc2c[nH]c3ccccc23)C(=O)N[C@@H](CCCCN)C(=O)N[C@@H]([C@@H](C)O)C(=O)N1)C(=O)O (stereo partly shown) [[68Ga]Ga-5, [^68Ga]Ga-NODAGA-FCPF-TATE, metal not drawn] (H-FC(X1)PF[dF]CY[dW]KTCT-OH; disulfide 6-11)
dissociation of the radiotracer in human serum [1]: 2% | tissue uptake at 1 h ([2]; Bone): 0.95 %ID/g | tissue uptake at 1 h ([2]; Brain): 1.29 %ID/g | tissue uptake at 1 h ([2]; Pituitary gland): 6.04 %ID/g | tissue uptake at 1 h ([2]; female, Adrenal glands): 6.45 %ID/g | tissue uptake at 1 h ([2]; female, Blood): 27.2 %ID/g | tissue uptake at 1 h ([2]; female, Heart): 7.89 %ID/g | tissue uptake at 1 h ([2]; female, Kidneys): 9.57 %ID/g | tissue uptake at 1 h ([2]; female, Liver): 54.6 %ID/g | tissue uptake at 1 h ([2]; female, Lower GI): 2.76 %ID/g | tissue uptake at 1 h ([2]; female, Lungs): 10.6 %ID/g | tissue uptake at 1 h ([2]; female, Muscle): 0.69 %ID/g | tissue uptake at 1 h ([2]; female, Pancreas): 3.49 %ID/g | tissue uptake at 1 h ([2]; female, Spleen): 20.8 %ID/g | tissue uptake at 1 h ([2]; female, Stomach): 2.17 %ID/g | tissue uptake at 1 h ([2]; female, Upper GI): 5.64 %ID/g | tissue uptake at 1 h ([3]; female, BALB/c, iv, total radioactivity, PET 68Ga radioactivity remaining in circulation): 13.8 ± 1.61 %ID/g | route of clearance from the blood pool [3]: predominantly hepatically | logD [4]: -0.4 ± 0.03
